In US20210290733A1, “INJECTABLE MICRONIZED HUMAN INSULIN” (ARVEN ILAC SANAYI VE TICARET ANONIM SIRKETI, priority 2018, published 2021):

What was measured:
[1] = Particle size measurement of human insulin before and after micronization; type: physicochemical
Experimental: According to one embodiment of the present invention, after micronization, the micronized human insulin has a d(0.1) particle size which is less than 5 μm or less than 3 μm or less than 2 μm.
According to one embodiment of the present invention, the micronized human insulin particles were prepared by using supercritical fluid process.

[2] = Bioactivity test (USP limit, USP 121 Insulin Assays); details: for Bioactivity: USP limit min. 15 IU/mg
Experimental: According to one embodiment of the present invention, the composition is prepared by based on USP 121 formula (The United States Pharmacopeial Convention 2015, [121] Insulin Assays). This is important in order to minimize the risk of adverse effects, both local and systemic. It is important that human insulin in the composition is used without extra excipients because, its amino acid sequence and biological activity are the same as those of the human body and are safe and have no toxic or side effects.

human insulin: recombinant human insulin, unmodified primary structure, before micronization
d(0.1) particle size ([1]; Before Micronization): 1.96 μm
d(0.5) particle size ([1]; Before Micronization): 13.24 μm
d(0.9) particle size ([1]; Before Micronization): 25.12 μm
Bioactivity ([2]; Before Micronization): 16.02 IU/mg

micronized human insulin: recombinant, unmodified human insulin with particle size reduced by supercritical fluid (SAS) process
d(0.1) particle size ([1]; After Micronization): 1.654 μm
d(0.5) particle size ([1]; After Micronization): 5.273 μm
d(0.9) particle size ([1]; After Micronization): 12.54 μm
Bioactivity ([2]; After Micronization): 34.72 IU/mg
Protein activity at the end of the micronization process (versus before) ([2]; without any change in protein structure): protein activity increased
